For this assay, the target named is Flag-eIF4E tagged with homotetrameric tag 6 (HOTag6), the eIF4E part of TORSEL (UniProt P06730).
Chain of UniProt P06730 (P06730 whole entry): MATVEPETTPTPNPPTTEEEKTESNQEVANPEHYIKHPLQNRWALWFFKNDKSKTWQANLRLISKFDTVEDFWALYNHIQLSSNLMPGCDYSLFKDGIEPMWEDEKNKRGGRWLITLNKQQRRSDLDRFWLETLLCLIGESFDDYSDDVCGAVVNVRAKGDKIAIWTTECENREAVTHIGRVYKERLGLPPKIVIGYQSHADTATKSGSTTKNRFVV

For “HA-tagged 4EBP1 tagged with mCherry and homohexameric tag 3 (HOTag3), the 4EBP1 part of TORSEL (from UniProt Q13541 1-118) (natural protein)”, the TORSEL fluorescent puncta in living U2OS cells when mTORC1 is suppressed by serum deprivation, EAA starvation or rapamycin; diffuse under normal culture conditions; 50-90% of cells with visible puncta was 50 to 90 % of cells.
